# According to patent US20150166606A1 (RA PHARMACEUTICALS, published 2015):
# Numbered stars: 1 amine (or outer) side, 2 acyl side, 3 side chain; on linkers, the order of the positions; unused ones are H or OH. Bridge positions count the residues as written; N and C are the ends. Square brackets hold non-standard residues; d marks the D form. Primed or numbered codes have the meaning given here. Ends that are not written are not given here. mXylyl = xylyl linker from dibromoxylene joining the two cysteines; mXylyl″ = dibromoxylene linker (meta) joining the cysteines; 4‑BZA = 2-amino-3-(4-carbamimidoylphenyl)propanoic acid; des‑NH2 = missing amino-terminal amine group; pXylylene = c1cc(C[*:2])ccc1C[*:1]; NMeR = CN[C@@H](CCCNC(=N)N)C(=O)O; Chg = N[C@H](C(=O)O)C1CCCCC1; Tle = CC(C)(C)[C@H](N)C(=O)O; NMeS = CN[C@@H](CO)C(=O)O; Orn = NCCC[C@H](N)C(=O)O; Ac5c = NC1(C(=O)O)CCCC1; Thp = NC1(C(=O)O)CCOCC1; Aib = CC(C)(N)C(=O)O; Mpa = O=C(O)CCS
# B1: R2156 (peptide)
# peptide: [Mpa]SICRV-NH2
# modifications: linker 1-4 via pXylylene
# SMILES: CC[C@H](C)[C@@H]1NC(=O)[C@H](CO)NC(=O)CCSCc2ccc(cc2)CSC[C@@H](C(=O)N[C@@H](CCCNC(=N)N)C(=O)N[C@H](C(N)=O)C(C)C)NC1=O
# B2: R2171 (peptide)
# peptide: CESICRV-NH2
# modifications: linker 1-5 via mXylyl″; not fully specified (residues 1, 6, N-terminus); printed as [mXylyl(1,5)](des-NH2)C-ESIC-r-V-NH2
# Molecular target: Activated human plasma kallikrein (Enzyme Research Laboratories, HPKa 1303) (human, UniProt P03952 20-638)
# Test: cell-based or functional assay
# Sequence of Activated human plasma kallikrein (Enzyme Research Laboratories, HPKa 1303) (P03952 20-638 limits assumed): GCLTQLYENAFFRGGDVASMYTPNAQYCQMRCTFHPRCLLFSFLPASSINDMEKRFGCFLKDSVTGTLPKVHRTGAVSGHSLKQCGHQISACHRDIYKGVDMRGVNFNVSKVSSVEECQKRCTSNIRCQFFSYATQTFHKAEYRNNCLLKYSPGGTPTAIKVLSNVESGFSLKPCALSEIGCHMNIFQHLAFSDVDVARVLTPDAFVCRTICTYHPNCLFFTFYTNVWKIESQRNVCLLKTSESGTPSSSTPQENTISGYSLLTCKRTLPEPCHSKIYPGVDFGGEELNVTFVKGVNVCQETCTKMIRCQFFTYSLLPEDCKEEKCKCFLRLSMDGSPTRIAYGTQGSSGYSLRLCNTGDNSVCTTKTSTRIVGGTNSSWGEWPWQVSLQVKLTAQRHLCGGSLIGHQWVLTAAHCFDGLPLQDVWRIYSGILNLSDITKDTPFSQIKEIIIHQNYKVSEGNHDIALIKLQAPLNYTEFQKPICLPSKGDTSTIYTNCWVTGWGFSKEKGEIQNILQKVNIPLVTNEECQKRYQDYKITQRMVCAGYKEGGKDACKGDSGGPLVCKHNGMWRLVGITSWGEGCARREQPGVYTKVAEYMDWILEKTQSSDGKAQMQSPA
row,Avg. IC50,Binder
1,1530 nM,B1
2,10.1 nM,{des‑NH2}-CS[Chg]CR[Tle]-NH2 (linker 1-4 via mXylyl) [R2164]
3,10.7 nM,{des‑NH2}-CP[Chg]CR[Tle]-NH2 (linker 1-4 via mXylyl) [R2167]
4,11.3 nM,[Mpa][Ac5c][Chg]CR[Tle]-NH2 (linker 1-4 via mXylyl) [R2168]
5,1960 nM,MCESIC[NMeR]V-NH2 (linker 2-6 via mXylyl) [R2163]
6,66.3 nM,[Mpa]SICRV-NH2 (linker 1-4 via mXylyl) [R2155]
7,> 100000 nM,B2
8,2230 nM,[Mpa]SICRV-NH2 (linker 1-4 via oXylyl) [R2161]
9,2340 nM,"[Mpa][Aib]A[Chg]CR[Tle]LRYC-NH2 (linker 1-5-11 via 1,3,5‑Xylyl) [R2158]"
10,82.1 nM,{des‑NH2}-C[NMeS][Chg]CR[Tle]-NH2 (linker 1-4 via mXylyl) [R2165]
11,379 nM,[Mpa][Ac5c]A[Chg]CRV-OH (linker 1-5 via mXylyl) [R2175]
12,> 14300 nM,"[Mpa][Aib]A[Chg]CR[Tle]PC-NH2 (linker 1-5-9 via 1,3,5‑Xylyl) [R2157]"
13,> 20100 nM,Ac-[Chg]CRVAC-NH2 (linker 2-6 via mXylyl) [R2159]
14,310 nM,[Mpa][Thp]A[Chg]C[4‑BZA]V-NH2 (linker 1-5 via mXylyl) [R2166]
15,> 100000 nM,[Mpa]ESIC[Orn]V-NH2 (linker 1-5 via mXylyl) [R2172]
16,> 100000 nM,Ac-[Chg]CRVPC-NH2 (linker 2-6 via mXylyl) [R2160]
17,870 nM,[Mpa][Ac5c][Chg]CK[Tle]-NH2 (linker 1-4 via mXylyl) [R2174]
18,466 nM,"[Mpa][Aib]A[Chg]CR-{2‑amino‑3,3‑dimethylbutan‑1‑ol} (linker 1-5 via mXylyl) [R2162]"
19,2.1 nM,[Mpa][Ac5c]A[Chg]CR[Tle]LRY-NH2 (linker 1-5 via mXylyl) [R2170]
20,1.9 nM,[Mpa][Ac5c]A[Chg]CR[Tle]-NH2 (linker 1-5 via mXylyl) [R2169]
